This experiment has as its target gB of HSV-1 (Human herpesvirus 1, UniProt P06436). The conditions noted are these: 293T cells.

B1: NMHC-IIBrod-Ig: fusion protein of Ig and the C-terminal fragment of NMHC-IIB, soluble form of NMHC-IIB (protein)
chain: FAQSKESEKKLKSLEAEILQLQEELASSERARRHAEQERDELADEITNSASGKSALLDEKRRLEARIAQLEEELEEEQSNMELLNDRFRKTTLQVDTLNAELAAERSAAQKSDNARQQLERQNKELKAKLQELEGAVKSKFKATISALEAKIGQLEEQLEQEAKERAAANKLVRRTEKKLKEIFMQVEDERRHADQYKEQMEKANARMKQLKRQLEEAEEEATRANASRRKLQRELDDATEANEGLSREVSTLKNRLRRGGPISFSSSRSGRRQLHLEGASLELSDDDTESKTSDVNETQPPQSE
modifications: left off: a dimerising Fc or GST; small tags and cut ends
For B1, the “staining of cells expressing gB on their surface” value was “stained”.
